In patent publication US20140235820A1, “METHODS AND COMPOSITIONS FOR MODULATING THE Wnt PATHWAY” (Genentech, Inc., priority 2010, published 2014):

Target: T1, LRP6 (Homo sapiens, UniProt O75581)
T1 construct: made in house; host or cells: Tni insect cells (baculovirus, secreted)
T1 sequence (O75581 20-1253): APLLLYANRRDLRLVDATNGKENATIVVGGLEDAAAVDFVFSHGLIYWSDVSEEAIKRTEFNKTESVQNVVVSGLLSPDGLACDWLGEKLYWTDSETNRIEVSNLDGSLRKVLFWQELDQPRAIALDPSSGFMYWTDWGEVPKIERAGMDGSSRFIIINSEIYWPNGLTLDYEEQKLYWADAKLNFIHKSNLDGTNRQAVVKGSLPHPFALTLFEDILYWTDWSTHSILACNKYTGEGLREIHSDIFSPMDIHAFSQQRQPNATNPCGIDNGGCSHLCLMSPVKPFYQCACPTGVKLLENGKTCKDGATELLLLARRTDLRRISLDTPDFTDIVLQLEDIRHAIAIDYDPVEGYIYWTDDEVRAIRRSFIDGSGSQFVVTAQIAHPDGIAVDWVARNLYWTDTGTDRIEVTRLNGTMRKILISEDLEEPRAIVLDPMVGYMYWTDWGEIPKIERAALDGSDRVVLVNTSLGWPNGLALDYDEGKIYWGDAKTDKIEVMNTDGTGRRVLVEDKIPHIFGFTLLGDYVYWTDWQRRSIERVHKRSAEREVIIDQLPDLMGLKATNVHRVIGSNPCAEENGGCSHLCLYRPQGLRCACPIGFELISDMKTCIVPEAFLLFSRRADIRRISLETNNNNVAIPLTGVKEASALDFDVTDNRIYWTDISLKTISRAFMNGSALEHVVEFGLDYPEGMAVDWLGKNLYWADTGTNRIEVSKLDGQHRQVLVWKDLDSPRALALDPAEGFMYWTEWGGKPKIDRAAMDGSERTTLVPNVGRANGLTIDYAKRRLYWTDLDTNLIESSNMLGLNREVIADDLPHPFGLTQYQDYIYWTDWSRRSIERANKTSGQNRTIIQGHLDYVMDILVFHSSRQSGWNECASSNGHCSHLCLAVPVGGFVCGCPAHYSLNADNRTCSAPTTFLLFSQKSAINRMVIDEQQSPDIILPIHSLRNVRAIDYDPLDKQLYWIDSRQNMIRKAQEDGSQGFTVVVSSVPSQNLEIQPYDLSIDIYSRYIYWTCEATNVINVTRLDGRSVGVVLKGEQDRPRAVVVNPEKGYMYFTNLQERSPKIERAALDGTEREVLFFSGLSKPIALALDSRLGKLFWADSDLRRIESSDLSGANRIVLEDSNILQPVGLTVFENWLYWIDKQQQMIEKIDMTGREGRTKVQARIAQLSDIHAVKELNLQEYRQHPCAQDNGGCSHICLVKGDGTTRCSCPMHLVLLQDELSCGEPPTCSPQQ
Assay: Biolayer interferometry binding to any LRP6 construct tested
Protocol: Binding kinetics were measured by biolayer interferometry using an Octet Red instrument (ForteBio) as previously described (11). Streptavidin (SA) biosensors were loaded with biotinylated hLRP6 in 50 mMTris, pH 8, 300 mM NaCl, 5% (v/v) glycerol, and 0.05% (w/v) Triton X-100. The loaded biosensors were washed in the same buffer before carrying out association and dissociation measurements for the indicated times. The Kd of each interaction was determined using steady state-analysis through the Octet Red software v6.3. Each reported value represents an average of three or more experiments at different concentrations, with a fitted experimental curve for which the square of the correlation coefficient (R^2) is above 0.96.
The interaction of the different Dkks and sclerostin with various domains of LRP6 was measured using a biolayer interferometry assay (11). Purified receptors contained individual β-propeller-EGF-like units (E1, E2, or E4), two β-propellers (E1E2 or E3E4), or four β-propellers (E1E4))—as follows:
Human LRP6: construct E1E4-amino acids A20-Q1253 of LPR6; construct E1E2-amino acids A20-E631 of LPR6; construct E3E4 amino acids E631-Q1253 of LPR6; construct E1-amino acids A20-D325 of LPR6; construct E2-amino acids […]-E631 of LPR6; construct E4-T933-Q1253. The individual LRP6 β-propeller E3 could not be expressed.

In the case of “Dkk3: Dickkopf 3, carrier-free protein from R&D Systems”, the “binding to any LRP6 construct tested” value is reported as “failed to bind”.
